Substitutions are numbered along the chain they refer to. Numbers in names are those of the source. Entries after “also recorded” stand apart in the source; their conditions may differ.
B1: R158A: tDGC diguanylate cyclase domain with I-site arginine 158 replaced by alanine (protein, listed as Thermotoga maritima)
chain: MGSSHHHHHHSSGLVPRGSHMKELEYMAYHDPLTGLPNRRYFFELGNRYLDLAKREGKKVFVLFVDLAGFKAINDTYGHLSGDEVLKTVSKRILDRVARSDVVARYGGDEFTILLYDMKEEYLKSLLERILSTFREPVRVENKHLSVTPNIGVARFPEDGENLEELLKVADMRMYKAKEMKVPYFSLS
modifications: DOMAIN (24)..(181) example of GGDEF domain
notes: tDGC diguanylate cyclase domain with I-site arginine 158 replaced by alanine
B2: R158Q: tDGC diguanylate cyclase domain with I-site arginine 158 replaced by glutamine (protein, listed as Thermotoga maritima)
chain: B1 chain with A98Q
modifications: DOMAIN (24)..(181) example of GGDEF domain
notes: tDGC diguanylate cyclase domain with I-site arginine 158 replaced by glutamine

Columns and labels:
Staphylococcus aureus = settings: exogenous c-di-GMP; incl. methicillin-resistant strains; cited from earlier work
S. aureus = settings: murine mastitis infection; cited from earlier work
[1] = tested on: human colon carcinoma cells; settings: basal and growth factor-induced; cited from earlier work
[2] = Diguanylate cyclase (DGC) activity assay and steady-state kinetic measurement (HPLC, GTP to c-di-GMP); assay type: biochemical, Thermotoga maritima
Description: Enzyme assays were conducted to determine the optimal salt concentration of the DGC reaction, with the buffer that contains 50 mM Tris-HCl (pH 8.0), 20 mM MgCl2, 100 μM GTP, 10 μM Enzyme, and 0-500 mM NaCl. Enzyme assays were conducted to determine the optimal pH concentration of the DGC reaction, with the buffer that contains 50 mM Tris-HCl (pH 7.0-9.0), 250 mM NaCl, 20 mM MgCl2, 100 μM GTP, 10 μM Enzyme. Reaction mixtures were incubated in a waterbath at 55° C. for 15 minutes. After heating at 95° C. for 10 min and centrifugation at 14,000 rpm for 5 min to remove protein precipitate, the supernatant was filtered before loading onto the Eclipse XDB-C18 (4.6×150 mm) column for monitoring the turnover from GTP to c-di-GMP using an Agilent LC1200 system (Mobile phase: 20 mM Triethylammonium bicarbonate (pH 7.0, pH adjusted using acetic acid), 9% Methanol, Flow rate: 1 mL/min). For thermostability analysis, the mutant protein was incubated at 45, 55 and 65° C., aliquots of protein solution were taken out at different time points to add into the reaction mixture that contains 50 mM Tris-Cl (pH 7.5), 250 mM NaCl, 20 mM MgCl2 and 100 μM GTP. The reaction was allowed to last for 10 min before being stopped and analyzed for GTP turnover by using HPLC. For product yield and steady state kinetic measurement, the standard reaction mixture include 50 mM Tris-Cl (pH 8), 20 mM MgCl2, 300 mM NaCl, 1 μM Enzyme, 5-800 μM GTP. Reactions were incubated at 55° C. for 1-60 minutes to obtain linear range of progress. For steady kinetics, data was fitted using GraphPad (Prism) to obtain the kinetic parameters.

[3] = c-di-GMP binding at the I-site of tDGC (absorption spectrum 256 nm peak, HPLC of denatured protein); parameters: species or system Thermotoga maritima; settings: purified protein, FIG. 1
Description: The observation was surprising since the synthesis of c-di-GMP from two molecules of GTP requires the DGC protein to function in its dimeric form.
However, despite the improved thermostability, we found the overall production yield was low even at high substrate concentration with prolonged incubation.

[4] = Size-exclusion chromatography, oligomeric state in solution; assay type: physicochemical, Thermotoga maritima; settings: Superdex 75, 4° C., FIG. 3
Description: Gel filtration was performed at 4° C. using the AKTA FPLC system equipped with a Superdex 75 HR 16/60 column (Amersham Biosciences). The buffer used for gel filtration is comprised of 50 mM Tris-Cl (pH 8.0), 300 mM NaCl, 5% Glycerol, 1 mM DTT. Fractions containing the recombinant protein were concentrated using Amicon concentrator (Millipore) to a final concentration of ca. 5 mg/ml as measured using Bradford assay. Concentrated proteins were stored in −80° C. degree after flash-freeze using liquid nitrogen. Mutant proteins were expressed, purified and stored following the same procedure. The molecular weight and oligomeric state of the protein was estimated based on the standard curve generated by using the standard proteins that include albumin, ovalbumin, chemotrypsinogen, RNase A. The final yield of the recombinant protein was 12-15 mg per liter culture for the wild type the mutant enzyme.

Row | Molecule | effect on in vitro cell-cell interactions and biofilm formation (Staphylococcus aureus) | effect on colonization and biofilm formation (S. aureus) | effect on cell proliferation [1] | NaCl concentration at which the enzyme is most efficient ([2]; 0-500 mM NaCl screened, 55° C., FIG. 4) | GTP concentration above which production yield decreased (substrate inhibition) ([2]; FIG. 2, 55° C.) | pH at which the enzyme is most efficient ([2]; pH 7.0-9.0 screened, 55° C., FIG. 4) | kcat of GTP condensation ([2]; steady-state kinetics, 55° C.) | GTP substrate turned over into c-di-GMP ([2]; under the assay conditions) | c-di-GMP binding / association with the protein [3] | oligomeric form in solution [4]
1 | Nc1nc2c(ncn2[C@@H]2O[C@@H]3COP(=O)(O)O[C@H]4[C@@H](O)[C@H](n5cnc6c(=O)[nH]c(N)nc65)O[C@@H]4COP(=O)(O)O[C@H]3[C@H]2O)c(=O)[nH]1 [c-di-GMP, Bis-(3′-5′)-cyclic dimeric guanosine monophosphate] | reduce in vitro cell-cell interactions and biofilm formation | inhibit colonization and biofilm formation | inhibiting basal and growth factor-induced proliferation | – | – | – | – | – | – | –
2 | B1 | – | – | – | 250 to 300 mM | ca. 0.8 mM | 7.5 | 2.6 min⁻¹ | ~100% | c-di-GMP is no longer associated with the protein; also recorded: abolished the c-di-GMP binding capability | monomer
3 | B2 | – | – | – | – | – | – | – | – | abolished the c-di-GMP binding capability | –
